The values that follow are results of earlier work, collected in publication doi:10.1101/2025.11.30.690581.

One data set addresses Lys66 (UniProt position 148, FTKKMKENAKK). Description: stability. The settings on record: apparent pKa of the native-state ensemble in the reference Δ+PHS background.
The next data set concerns the target Lys92 (UniProt position 174, RGLAYKYADGK). Briefly: stability. To be noted: apparent pKa of the native-state ensemble in the reference Δ+PHS background.

For “Staphylococcal nuclease Δ+PHS V66K (reference protein with Lys-66) (Staphylococcus aureus; G50F;V51N;P117G;H124L;S128A;del44-49;V66K)”, the pKa (as a rule, the negative logarithm of the acid dissociation constant) with Lys66 was 5.7.

For the substance “Staphylococcal nuclease Δ+PHS I92K (reference protein with Lys-92) (Staphylococcus aureus; G50F;V51N;P117G;H124L;S128A;del44-49;I92K)”, the pKa with Lys92 is given as 5.2.
